Molecular target: tubulins (tubulin dimers; paclitaxel-stabilized microtubules)
Assay: co-sedimentation; different concentrations of the protein added to paclitaxel-stabilized microtubules (prepolymerized from 8 uM tubulins in Fig 5A, 5 uM in S7 Fig) in PEMT buffer (1 mM MgCl2, 1 mM EGTA, 100 mM PIPES, 20 uM taxol, pH 6.9); 25 C 30 min; 100,000g 30 min; SDS-PAGE, Coomassie

tubulins (tubulin dimers; paclitaxel-stabilized microtubules), sequence (P02550 whole entry, chain 1 of 2): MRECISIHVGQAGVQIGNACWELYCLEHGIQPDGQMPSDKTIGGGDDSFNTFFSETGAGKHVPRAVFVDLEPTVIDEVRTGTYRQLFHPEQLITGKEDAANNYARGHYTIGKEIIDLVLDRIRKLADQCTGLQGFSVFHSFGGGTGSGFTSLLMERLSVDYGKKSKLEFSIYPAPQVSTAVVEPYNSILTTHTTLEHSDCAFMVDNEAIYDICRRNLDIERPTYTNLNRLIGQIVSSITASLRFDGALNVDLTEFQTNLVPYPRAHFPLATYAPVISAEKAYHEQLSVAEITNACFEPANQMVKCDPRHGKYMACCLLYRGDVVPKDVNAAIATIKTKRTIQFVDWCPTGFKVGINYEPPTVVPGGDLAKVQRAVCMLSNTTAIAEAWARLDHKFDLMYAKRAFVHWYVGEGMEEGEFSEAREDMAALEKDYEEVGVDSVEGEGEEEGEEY
tubulins (tubulin dimers; paclitaxel-stabilized microtubules), sequence (P02554 whole entry, chain 2 of 2, further chain): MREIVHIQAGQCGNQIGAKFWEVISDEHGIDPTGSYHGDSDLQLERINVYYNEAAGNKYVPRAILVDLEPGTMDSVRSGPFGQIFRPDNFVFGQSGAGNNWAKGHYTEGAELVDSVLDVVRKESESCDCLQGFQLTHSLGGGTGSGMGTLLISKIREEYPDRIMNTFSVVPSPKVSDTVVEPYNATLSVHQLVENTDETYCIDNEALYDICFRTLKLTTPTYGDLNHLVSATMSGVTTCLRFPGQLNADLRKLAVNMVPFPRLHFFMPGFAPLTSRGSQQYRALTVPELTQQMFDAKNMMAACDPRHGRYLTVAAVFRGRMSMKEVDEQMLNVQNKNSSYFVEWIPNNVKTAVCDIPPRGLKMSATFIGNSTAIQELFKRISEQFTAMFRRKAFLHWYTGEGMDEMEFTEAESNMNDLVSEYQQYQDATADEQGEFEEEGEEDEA

His-AUG8 (AUGMIN subunit 8) (natural protein)
stoichiometry N (M His-AUG8 per mole of tubulin dimers): 0.22

Source: PMC5074588
